{"source": "patent US20040086966A1", "about": "(EUROSCREEN S A, published 2004)", "binders": {"B1": {"name": "human Prochemerin (recombinant, unprocessed) (ligand)", "chain": "ELTEAQRRGLQVALEEFHKHPPVQWAFQETSVESAVDTPFPAGIFVRLEFKLQQTSCRKRDWKKPECKVRPNGRKRKCLACIKLGSEDKVLGRLVHCPIETQVLREAEEHQETQCLRVQRAGEDPHSFYFPGQFAFSKALPRS"}, "B2": {"name": "YHSFFFPGQFAFS peptide (unlabeled) (peptide)", "peptide": "YHSFFFPGQFAFS", "notes": "also called unlabeled peptide; unlabel peptide"}}, "note": "No end group written: not given here.", "data": [{"target": "T1, human ChemerinR (human, UniProt Q99788 3-373)", "T1 sequence": "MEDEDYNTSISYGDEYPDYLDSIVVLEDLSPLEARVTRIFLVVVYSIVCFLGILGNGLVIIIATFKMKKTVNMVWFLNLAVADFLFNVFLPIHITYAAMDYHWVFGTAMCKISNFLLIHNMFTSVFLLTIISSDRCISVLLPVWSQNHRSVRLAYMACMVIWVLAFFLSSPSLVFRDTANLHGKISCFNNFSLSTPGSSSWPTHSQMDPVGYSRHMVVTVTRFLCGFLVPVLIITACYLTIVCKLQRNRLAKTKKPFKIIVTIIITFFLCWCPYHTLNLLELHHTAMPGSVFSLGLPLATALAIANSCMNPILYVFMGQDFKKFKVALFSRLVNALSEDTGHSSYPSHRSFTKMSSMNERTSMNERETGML", "experiment": "cell-based or functional assay", "units": {"EC50, biological activity on CHO-K1 cells expressing human ChemerinR (aequorin assay)": "nM", "EC50, aequorin-based assay": "nM"}, "values": [{"binder": "B1", "EC50, biological activity on CHO-K1 cells expressing human ChemerinR (aequorin assay)": 393}, {"binder": "B2", "EC50, aequorin-based assay": 28}]}, {"target": "T1, human ChemerinR", "experiment": "cell-based or functional assay", "remark": "another data set of the same source", "units": {"Mean EC50, intracellular calcium release (aequorin assay)": "nM"}, "values": [{"binder": "QRAGEDPHSFYFPGQFA", "note": "[Human [delta-Phe18Ser19]Chemerin-19]", "Mean EC50, intracellular calcium release (aequorin assay)": 220000}, {"binder": "AFPGQFAFS", "note": "[Human [Ala-1]Chemerin-9]", "Mean EC50, intracellular calcium release (aequorin assay)": 496}, {"binder": "PGQFAFS", "note": "[Human Chemerin-7]", "Mean EC50, intracellular calcium release (aequorin assay)": 220000}, {"binder": "QRAGEDPHSFYFPGQFAFS", "note": "[Human Chemerin-19]", "Mean EC50, intracellular calcium release (aequorin assay)": 16.7}, {"binder": "FPGQFAFS", "note": "[Human Chemerin-8]", "Mean EC50, intracellular calcium release (aequorin assay)": 2000}, {"binder": "QRAGEDPHSFYFPGQFAFSK", "note": "[Human [Lys20]Chemerin-19]", "Mean EC50, intracellular calcium release (aequorin assay)": 170000}, {"binder": "YFPGQAAFS", "note": "[Human [Ala-6]Chemerin-9]", "Mean EC50, intracellular calcium release (aequorin assay)": 5000}, {"binder": "YAPGQFAFS", "note": "[Human [Ala-2]Chemerin-9]", "Mean EC50, intracellular calcium release (aequorin assay)": 155}, {"binder": "QRAGEDPHSFYFPGQFAFSKALPRS", "note": "[Human prochemerin-25]", "Mean EC50, intracellular calcium release (aequorin assay)": 160000}, {"binder": "PHSFYFPGQFAFS (not fully specified)", "note": "[Human Chemerin-13]", "Mean EC50, intracellular calcium release (aequorin assay)": 14}, {"binder": "QRAGEDPHSFYFPGQF", "note": "[Human [delta-Ala17Phe18Ser19]Chemerin-19]", "Mean EC50, intracellular calcium release (aequorin assay)": 130000}, {"binder": "FYFPGQFAFS", "note": "[Human Chemerin-10]", "Mean EC50, intracellular calcium release (aequorin assay)": 8.2}, {"binder": "HSFYFPGQFAFS", "note": "[Human Chemerin-12]", "Mean EC50, intracellular calcium release (aequorin assay)": 12.2}, {"binder": "QRAGEDPHSFYFPGQFAF", "note": "[Human [delta-Ser19]Chemerin-19]", "Mean EC50, intracellular calcium release (aequorin assay)": 97}, {"binder": "YFPGQFAAS", "note": "[Human [Ala-8]Chemerin-9]", "Mean EC50, intracellular calcium release (aequorin assay)": 38000}]}, {"target": "T1, human ChemerinR", "experiment": "competition binding on ChemerinR-expressing CHO-K1 cells, tracer 125I-…, one-site model, 3 experiments", "procedure": "(§1) ChemerinR expressing CHO-K1 cells were collected from plates with PBS supplemented with 5 mM EDTA, gently pelleted for 2 min at 1000×g, and resuspended in binding buffer (50 mM HEPES, pH 7.4, 1 mM CaCl₂, 5 mM MgCl₂, 0.5% BSA). […] Filters were counted in a […]-scintillation counter. Binding parameters were determined with the PRISM software (Graphpad Software) using nonlinear regression applied to a one-site competition model.", "units": {"Ki": "nM"}, "values": [{"binder": "B2", "Ki": 12.1, "pKi": 7.95}]}, {"target": "T1, human ChemerinR", "experiment": "competition binding on ChemerinR-expressing CHO-K1 cells; tracer (competed ligand) 125I-…", "procedure": "as §1", "units": {"IC50 (read off the curve)": "nM"}, "values": [{"binder": "B2", "IC50 (read off the curve)": "~20"}]}]}
